Experimental data from patent US9623039B2, “Treatment and prevention of pathological conditions using iduna related techniques and compositions” (VALTED, LLC, priority 2010, dated 2017).

Key:
[1] = test system: MCF7 cells; test: Cell cycle analysis after γ-irradiation; format: cell-based, human; conditions: γ-irradiation 2 Gy
Experimental: Cell cycle analysis. Studies were performed to evaluate the cell cycle response of each stable cell lines. Cells were plated onto 150 mm culture dishes and cultured for 24 h at 37° C. with fresh growth medium. Following replacement of growth medium, cells were irradiated at 2 Gy with a Gammacell irradiator. After 12 h, cells were washed once with PBS and incubated with PBS containing 0.2% EDTA for 5 min at 37° C., thereafter scraped with fresh growth medium and collected at 500×g at 4° C. Collected cells were washed once with ice cold PBS and then fixed with 70% ethanol. Cells were washed once with PBS containing 1% FBS and resuspended into propidium iodide (PI) staining buffer (PBS, pH 7.4, 50 μg/ml PI, 1% FBS, 100 μg/ml RNase) for 30 min at 37° C. Cells were monitored for DNA content by a flow cytometry (BD Biosciences) and then data were analyzed with FlowJo using Dean-Jett-Fox model for the quantification of each cell cycle phase.

[2] = test system: MCF7 cells; test: MNNG cell death assay in stable MCF7 cell lines; format: cell-based, human; conditions: MNNG 500 μM 15 min, 24 hr
Experimental: Cell death assay. GFP, GFP-Iduna, GFP-Iduna C60A, GFP-Iduna YRAA, shRNA-Iduna and shRNA-Iduna/GFP-Iduna stably transfected cells were treated with 500 μM MNNG for 15 min, and replaced with fresh growth media. After 24 h, the cells were stained with […] Hoechst 33342 (Invitrogen) and […] propidium iodide (PI) (Invitrogen) and counted by automated computer-assisted program (Carl Zeiss). The percentage of cell death was determined as the ratio of live to dead cells compared with the percentage of cell death in control.

[3] = Intrastriatal NMDA lesion in Iduna transgenic mice; format: in vivo, mouse; conditions: Iduna transgenic mice vs littermate wild type, intrastriatal NMDA 20 nmoles
Text: To determine whether Iduna is protective in vivo, transgenic mice overexpressing Iduna were generated by knocking in Iduna into the ROSA26 genomic locus resulting in a four-fold expression over wild type littermate mice (FIGS. 58-60). NMDA induced lesions are reduced by approximately 80% in the Iduna transgenic mice compared to littermate wild type control animals following an intrastriatal injection of NMDA (20 nmoles) (FIGS. 61 and 62).
Transgenic Mice: ES cells were targeted and screened as described in Soriano et al. Briefly, the pROSA26PA-iduna plasmid was linearized with KpnI and electroporated into ES cells derived from mouse strain 129SvEv. Twelve of 277 G418-resistant colonies had undergone correct homologous recombination, as determined by Southern blot and PCR of the ROSA26-Iduna allele. Two of these ROSA26-Iduna ES clones were injected into C57BL/6 blastocysts. Resulting chimeras were bred to C57BL/6 mice and offspring were tested for germline transmission. Heterozygous mice for the Rosa26PA-Iduna allele were crossed to Nestin-Cre^(+/+) mice (on C57BL/6 background), which were obtained from the Jackson Laboratory, to obtain ROSA26PA-Iduna^(+/loxP)/Nestin-Cre^(−/+) mice. Nestin-cre/ROSA26PA-Iduna transgenic mice, in which Cre recombinase expression is under the control of the nestin promoter, specifically expresses Iduna in brain. […]

[4] = test system: cytochrome c; test: Cytochrome c release after NMDA excitotoxicity; format: cell-based, mouse; conditions: NMDA 500 μM for 5 min, 4 hrs
Experimental: FIG. 53—Immunoblot showing release of CYT C. Mouse cortical neurons over-expressing GFP, GFP-Iduna or GFP-Iduna-YRAA were subjected to NMDA-excitotoxicity (500 μM for 5 min) on DIV 14. Following subcellular fractionation into mitochondrial and cytosolic (post-mitochondrial) fractions, CYT C release was monitored 4 hrs following NMDA stimulation. COX IV was used as a marker for mitochondria and GAPDH was used a marker for cytosol. Data were repeated three times with similar results.
FIG. 54—Quantification of cytochrome c release from mitochondria following NMDA-toxicity. […] Values of optical density were quantified using Image J software and the data were normalized to the values of GAPDH in the cytosol.

[5] = test system: MCF7 cells; test: Determination of apurinic/apyrimidinic (AP) sites; format: cell-based, human; conditions: 1 h
Experimental: Determination of apurinic/apyrimidinic (AP) sites. The amount of AP sites in genomic DNA was monitored by a DNA damage quantification kit (BioVision). Briefly, cells were treated with either DMSO or 500 μM MNNG for 15 min, and then replaced with normal growth media. After 1 h, cells were scraped and harvested at 500×g for 5 min and washed once with PBS. Genomic DNA was isolated using a Biovision Genomic DNA Isolation Kit (BioVision) and then AP sites on the 0.5 μg of genomic DNA was labeled with biotin by the Aldehyde Reactive Probe (ARP) reagent (supplied with the DNA damage quantification kit) for 1 h at 37° C. To precipitate the biotin-tagged DNA, sample was mixed with TE buffer containing 2% glycogen and then sequentially incubated with ice cold 70% ethanol for 30 min at −20° C. […] To determine of the number of AP sites in DNA, samples were dissolved in TE buffer and then transferred into 96 well plate with DNA binding buffer (supplied with the DNA damage quantification kit). After 12 h, samples were washed five times with DNA washing buffer (supplied with the DNA damage quantification kit) and then biotin labeled AP sites were quantified using an avidin-biotin assay. Each sample and standards (supplied with a DNA damage quantification kit) were run in triplicate and the OD was measured at 650 nm using a 96-well plate reader (SpectraMax Plus384 Microplate Reader).

B1: Iduna: novel NMDA-induced cell survival protein, PAR-dependent E3 ligase; 359 amino acids (protein)
chain: MEMAGCGEIDHSINMLPTNKKANESCSNTAPSLTVPECAICLQTCVHPVSLPCKHVFCYLCVKGASWLGKRCALCRQEIPEDFLDKPTLLSPEELKAASRGNGEYAWYYEGRNGWWQYDERTSRELEDAFSKGKKNTEMLIAGFLYVADLENMVQYRRNEHGRRRKIKRDIIDIPKKGVAGLRLDCDTNTVNLARESSADGADSGSAQTGASVQLAVPSSTRPLTSVDGQLTSPVTPSPDAGISLEDSFAHLQLSGDSIAERSHRGEGEEDHESPSSGRVPDTSVEETESDASSDSEDAPVVVAQHSLTQQRPLVPNGNQTVADQSDRSGTDRSVAGGGTMSVNVRSRRPDGQCTVIEV
cell cycle arrest and cell survival [1]: rescues cells from G1 arrest in the cell cycle and promotes cell survival | MNNG-induced cell death [2]: dramatically rescues MCF7 cells from MNNG-induced cell death | reduction of NMDA induced lesions [3]: approximately 80% | cytochrome c translocation from mitochondria to the cytoplasm [4]: reduction of cytochrome c translocation from mitochondria to the cytoplasm | increase in AP sites after MNNG [5]: completely prevented
